# Test results from publication PMC6386767, “Characterization of recombinant fructose-1,6-bisphosphatase gene mutations: evidence of inhibition/activation of FBPase protein by gene mutation” (Bioscience Reports, 2019).
# Where a chain is given by its changes, count along the chain named. Numbers in names are those of the source.
# B1: pig kidney FBPase L73A (Sus scrofa; L74A) (protein)
# chain: MTDQAAFDTNIVTLTRFVMEEGRKARGTGEMTQLLNSLCTAVKAISTAVRKAGIAHLYGIAGSTNVTGDQVKKADVLSNDLVINVLKSSFATCVLVSEEDKNAIIVEPEKRGKYVVCFDPLDGSSNIDCLVSIGTIFGIYRKNSTDEPSEKDALQPGRNLVAAGYALYGSATMLVLAMVNGVNCFMLDPAIGEFILVDRDVKIKKKGSIYSINEGYAKEFDPAITEYIQRKKFPPDNSAPYGARYVGSMVADVHRTLVYGGIFMYPANKKSPKGKLRLLYECNPMAYVMEKAGGLATTGKEAVLDIVPTDIHQRAPIILGSPEDVTELLEIYQKHAAK
# B2: pig kidney FBPase WT (Sus scrofa) (protein)
# chain: B1 chain with A74L
# B3: pig kidney FBPase M177A (Sus scrofa; M178A) (protein)
# chain: B1 chain with A74L, M178A
# B4: pig kidney FBPase K112A (Sus scrofa; K113A) (protein)
# chain: B1 chain with A74L, K113A
# B5: pig kidney FBPase L56A (Sus scrofa; L57A) (protein)
# chain: B1 chain with L57A, A74L
# B6: pig kidney FBPase Y113A (Sus scrofa; Y114A) (protein)
# chain: B1 chain with A74L, Y114A
# B7: pig kidney FBPase Y164A (Sus scrofa; Y165A) (protein)
# chain: B1 chain with A74L, Y165A
# B8: pig kidney FBPase M248D (Sus scrofa; M249D) (protein)
# chain: B1 chain with A74L, M249D
# Substrate: O=C(COP(=O)(O)O)[C@@H](O)[C@H](O)[C@H](O)COP(=O)(O)O
# Assay: purified protein, by the assay type
# Conditions: apparent Km for substrate FBP, pH 7.5, 37.0 °C
# [1] = other: enzyme M177A_2 (second clone)
protein,measurement,setting,value
B1,Km,other: enzyme L73A,5.10 (± 0.3) µM
same,Vmax,other: enzyme L73A,50.5 µM/min
same,kcat,other: enzyme L73A,22.5 s⁻¹
same,kcat/Km,other: enzyme L73A,4.41e+06 M⁻¹ s⁻¹
B2,Km,other: enzyme WT,4.80 (± 0.5) µM
same,Vmax,other: enzyme WT,41.8 µM/min
same,kcat,other: enzyme WT,20.5 s⁻¹
same,kcat/Km,other: enzyme WT,4.3e+06 M⁻¹ s⁻¹
B3,Km,other: enzyme M177A_1,4.20 (± 0.6) µM
same,Vmax,other: enzyme M177A_1,26.1 µM/min
same,kcat,other: enzyme M177A_1,12.8 s⁻¹
same,kcat/Km,other: enzyme M177A_1,3.1e+06 M⁻¹ s⁻¹
same,Km,[1],4.80 (± 0.5) µM
same,Vmax,[1],23.4 µM/min
same,kcat,[1],11.5 s⁻¹
same,kcat/Km,[1],2.4e+06 M⁻¹ s⁻¹
B4,Km,other: enzyme K112A,3.25 (± 0.2) µM
same,Vmax,other: enzyme K112A,54.7 µM/min
same,kcat,other: enzyme K112A,26.8 s⁻¹
same,kcat/Km,other: enzyme K112A,8.25e+06 M⁻¹ s⁻¹
B5,Km,other: enzyme L56A,5.20 (± 0.2) µM
same,Vmax,other: enzyme L56A,52.3 µM/min
same,kcat,other: enzyme L56A,25.6 s⁻¹
same,kcat/Km,other: enzyme L56A,4.9e+06 M⁻¹ s⁻¹
B6,Km,other: enzyme Y113A,2.50 (± 0.3) µM
same,Vmax,other: enzyme Y113A,55.5 µM/min
same,kcat,other: enzyme Y113A,27.2 s⁻¹
same,kcat/Km,other: enzyme Y113A,1.09e+07 M⁻¹ s⁻¹
B7,Km,other: enzyme Y164A,5.30 (± 0.6) µM
same,Vmax,other: enzyme Y164A,27.5 µM/min
same,kcat,other: enzyme Y164A,13.5 s⁻¹
same,kcat/Km,other: enzyme Y164A,2.6e+06 M⁻¹ s⁻¹
B8,Km,other: enzyme M248D,1.25 (± 0.4) µM
same,Vmax,other: enzyme M248D,62.2 µM/min
same,kcat,other: enzyme M248D,30.5 s⁻¹
same,kcat/Km,other: enzyme M248D,2.44e+07 M⁻¹ s⁻¹
